According to PMC3377380 (Molecular Membrane Biology, 2012):

T1: GST-Obsc_(6316–6345) (Rattus norvegicus)
T1 chain: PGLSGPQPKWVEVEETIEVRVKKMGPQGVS


Experiments:
GST-Obsc_(6316–6345) = biological target: T1, GST-Obsc_(6316–6345); assay: SPR
GST-Obsc_(6231–6260) = GST-Obsc_(6231–6260) (Rattus norvegicus); assay: SPR

fold decrease in kon against wild type (GST-Obsc_(6231–6260)) [fold]	other results	Binder
	fold reduction in kon against wild type (GST-Obsc_(6316–6345)): ~3 fold	sAnk1-MBP I102A (domain or fragment) VKGSLCFVLKHIHQELDKELGESEGLSDDEETISTRVVRRRVFLKGDELQNIPGEQVTEEQFTDEQGNIVTKKAIRKVVRQVDSSGAIDTQQHEEVELRGSGLQPDLIEGRKGAQIVKRASLKRGKQ
~2		sAnk1-MBP F71A (domain or fragment) VKGSLCFVLKHIHQELDKELGESEGLSDDEETISTRVVRRRVALKGDELQNIPGEQVTEEQFTDEQGNIVTKKIIRKVVRQVDSSGAIDTQQHEEVELRGSGLQPDLIEGRKGAQIVKRASLKRGKQ
	Kd (GST-Obsc_(6316–6345)): ~0.13 µM	sAnk1-MBP (wild type, sAnk1 residues 29–155) (domain or fragment) VKGSLCFVLKHIHQELDKELGESEGLSDDEETISTRVVRRRVFLKGDELQNIPGEQVTEEQFTDEQGNIVTKKIIRKVVRQVDSSGAIDTQQHEEVELRGSGLQPDLIEGRKGAQIVKRASLKRGKQ
~2		sAnk1-MBP I103A (domain or fragment) VKGSLCFVLKHIHQELDKELGESEGLSDDEETISTRVVRRRVFLKGDELQNIPGEQVTEEQFTDEQGNIVTKKIARKVVRQVDSSGAIDTQQHEEVELRGSGLQPDLIEGRKGAQIVKRASLKRGKQ
